Source: the supplement of paper PMC10065799, “High-throughput profiling of sequence recognition by tyrosine kinases and SH2 domains using bacterial peptide display” (eLife, 2023)

Key:
AncSZ = assay: phosphorylation enrichment, bacterial display (enrichment ratio); higher = better substrate or ligand; peptides without Tyr show the background
EPHB1 = EPHB1 (UniProt P54762); assay: as above
EPHB2 = EPHB2 (UniProt P29323); assay: as above
FGFR1 = FGFR1 (UniProt P11362); assay: as above
FGFR3 = FGFR3 (UniProt P22607); assay: as above
Fer (mouse) = assay: as above
Fes = Fes (UniProt P07332); assay: as above
Fyn = Fyn (UniProt P06241); assay: as above
Hck = Hck (UniProt P08631); assay: as above
Jak2 = Jak2 (UniProt O60674); assay: as above
MERTK = MERTK (UniProt Q12866); assay: as above
c-Abl (mouse) = assay: as above
c-Src = assay: as above
Grb2 SH2 = Grb2 SH2 (UniProt P62993); assay: SH2 binding enrichment of the phosphorylated peptide, bacterial display (enrichment ratio); higher = better substrate or ligand; peptides without Tyr show the background
SHP2-C SH2 = assay: as above
c-Src SH2 = assay: as above
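Throughout, for SH2 binding enrichment of the phosphorylated peptide, bacterial display: peptide library displayed on the E. coli surface as eCPX fusions, selected cells deep-sequenced, score is each peptide's frequency after selection divided by its frequency in the input.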
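Throughout, for phosphorylation enrichment, bacterial display: 11-residue human phosphosite peptides and single-mutation variants displayed on the E. coli surface, counted by deep sequencing, each peptide's frequency after selection divided by its frequency in the unselected input library; frequency after pTyr selection over input frequency; kinase dosed for 20-30% of maximal phosphorylation in three min.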

Chain of EPHB1 (P54762 whole entry, looked up): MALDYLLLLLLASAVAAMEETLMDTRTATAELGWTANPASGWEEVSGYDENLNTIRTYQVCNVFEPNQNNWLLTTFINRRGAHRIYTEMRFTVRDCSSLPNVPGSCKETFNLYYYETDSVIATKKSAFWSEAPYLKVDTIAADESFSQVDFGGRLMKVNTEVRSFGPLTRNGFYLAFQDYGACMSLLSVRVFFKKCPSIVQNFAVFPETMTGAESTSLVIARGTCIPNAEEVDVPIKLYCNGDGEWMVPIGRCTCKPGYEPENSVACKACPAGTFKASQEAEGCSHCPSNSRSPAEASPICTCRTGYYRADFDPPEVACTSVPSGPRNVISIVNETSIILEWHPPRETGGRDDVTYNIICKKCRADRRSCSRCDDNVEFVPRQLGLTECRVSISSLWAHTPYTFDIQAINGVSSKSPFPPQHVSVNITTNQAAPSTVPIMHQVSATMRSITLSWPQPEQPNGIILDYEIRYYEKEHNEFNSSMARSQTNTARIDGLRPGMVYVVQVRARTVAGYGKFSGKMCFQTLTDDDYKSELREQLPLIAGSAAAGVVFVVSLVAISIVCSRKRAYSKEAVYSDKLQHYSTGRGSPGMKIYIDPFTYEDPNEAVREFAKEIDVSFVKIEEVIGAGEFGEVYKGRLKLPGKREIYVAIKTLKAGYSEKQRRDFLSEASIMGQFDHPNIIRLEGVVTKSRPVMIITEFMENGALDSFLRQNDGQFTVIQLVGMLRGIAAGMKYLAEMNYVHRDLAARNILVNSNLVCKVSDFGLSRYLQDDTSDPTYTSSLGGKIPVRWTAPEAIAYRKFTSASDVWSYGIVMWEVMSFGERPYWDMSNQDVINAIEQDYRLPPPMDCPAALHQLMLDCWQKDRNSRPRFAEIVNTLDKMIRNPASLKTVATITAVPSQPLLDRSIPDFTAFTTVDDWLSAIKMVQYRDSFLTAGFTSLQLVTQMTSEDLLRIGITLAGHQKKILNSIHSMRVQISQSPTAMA
Chain of Hck (P08631 whole entry, looked up): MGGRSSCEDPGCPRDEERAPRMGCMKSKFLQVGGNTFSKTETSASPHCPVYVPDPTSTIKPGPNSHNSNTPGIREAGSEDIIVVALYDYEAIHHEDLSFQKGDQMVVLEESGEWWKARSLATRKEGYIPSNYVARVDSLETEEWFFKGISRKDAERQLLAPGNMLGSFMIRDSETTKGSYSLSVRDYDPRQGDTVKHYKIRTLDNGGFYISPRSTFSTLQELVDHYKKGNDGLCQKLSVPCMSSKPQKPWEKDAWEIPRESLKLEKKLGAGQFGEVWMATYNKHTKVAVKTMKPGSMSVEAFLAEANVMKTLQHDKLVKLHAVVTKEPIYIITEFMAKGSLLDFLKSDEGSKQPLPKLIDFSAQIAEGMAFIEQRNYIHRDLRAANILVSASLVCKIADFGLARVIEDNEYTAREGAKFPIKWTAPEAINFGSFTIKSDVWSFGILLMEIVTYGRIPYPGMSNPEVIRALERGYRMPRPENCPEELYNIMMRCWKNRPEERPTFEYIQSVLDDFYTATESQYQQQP
Chain of Fes (P07332 whole entry, looked up): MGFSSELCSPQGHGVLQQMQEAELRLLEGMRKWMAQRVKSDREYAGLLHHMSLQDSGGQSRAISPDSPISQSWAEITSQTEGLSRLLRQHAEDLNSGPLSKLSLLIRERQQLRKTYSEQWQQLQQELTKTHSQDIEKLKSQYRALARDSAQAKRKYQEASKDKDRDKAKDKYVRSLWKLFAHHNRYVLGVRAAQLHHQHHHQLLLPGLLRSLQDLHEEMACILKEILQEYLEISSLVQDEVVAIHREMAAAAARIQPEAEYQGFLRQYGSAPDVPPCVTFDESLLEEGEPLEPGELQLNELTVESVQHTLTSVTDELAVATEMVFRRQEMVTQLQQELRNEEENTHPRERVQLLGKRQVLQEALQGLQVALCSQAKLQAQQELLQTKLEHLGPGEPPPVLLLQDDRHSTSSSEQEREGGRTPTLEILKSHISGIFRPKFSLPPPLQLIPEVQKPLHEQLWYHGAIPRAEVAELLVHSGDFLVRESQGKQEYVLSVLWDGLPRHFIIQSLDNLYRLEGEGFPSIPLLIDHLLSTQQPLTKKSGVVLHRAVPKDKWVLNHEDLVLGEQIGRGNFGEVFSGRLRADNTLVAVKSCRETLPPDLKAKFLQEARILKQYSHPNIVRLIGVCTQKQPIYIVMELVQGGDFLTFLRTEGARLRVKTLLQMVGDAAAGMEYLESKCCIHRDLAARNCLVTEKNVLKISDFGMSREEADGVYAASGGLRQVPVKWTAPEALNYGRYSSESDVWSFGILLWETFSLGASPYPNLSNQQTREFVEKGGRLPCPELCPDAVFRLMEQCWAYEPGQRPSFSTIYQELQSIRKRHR
Chain of FGFR3 (P22607 whole entry, looked up): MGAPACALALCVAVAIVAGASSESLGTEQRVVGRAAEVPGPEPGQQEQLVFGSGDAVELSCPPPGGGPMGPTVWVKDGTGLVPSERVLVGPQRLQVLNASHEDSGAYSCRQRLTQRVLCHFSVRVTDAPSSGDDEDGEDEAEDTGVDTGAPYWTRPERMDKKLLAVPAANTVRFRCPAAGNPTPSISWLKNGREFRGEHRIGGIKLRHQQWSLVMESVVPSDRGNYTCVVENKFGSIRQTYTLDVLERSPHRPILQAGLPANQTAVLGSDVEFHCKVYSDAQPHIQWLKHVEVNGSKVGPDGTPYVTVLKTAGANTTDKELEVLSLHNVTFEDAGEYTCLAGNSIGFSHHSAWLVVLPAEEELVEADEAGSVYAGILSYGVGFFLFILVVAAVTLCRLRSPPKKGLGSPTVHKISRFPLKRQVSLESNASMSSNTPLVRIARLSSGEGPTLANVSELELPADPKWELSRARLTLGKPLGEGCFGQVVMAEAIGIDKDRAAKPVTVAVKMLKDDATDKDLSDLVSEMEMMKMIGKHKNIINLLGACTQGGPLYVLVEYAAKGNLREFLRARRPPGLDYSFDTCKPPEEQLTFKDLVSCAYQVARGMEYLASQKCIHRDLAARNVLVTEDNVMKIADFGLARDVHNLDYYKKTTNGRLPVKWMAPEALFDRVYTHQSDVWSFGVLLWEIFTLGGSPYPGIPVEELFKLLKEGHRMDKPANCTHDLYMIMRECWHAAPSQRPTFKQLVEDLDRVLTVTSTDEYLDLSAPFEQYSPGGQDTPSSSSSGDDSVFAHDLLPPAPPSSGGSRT
Chain of EPHB2 (P29323 whole entry, looked up): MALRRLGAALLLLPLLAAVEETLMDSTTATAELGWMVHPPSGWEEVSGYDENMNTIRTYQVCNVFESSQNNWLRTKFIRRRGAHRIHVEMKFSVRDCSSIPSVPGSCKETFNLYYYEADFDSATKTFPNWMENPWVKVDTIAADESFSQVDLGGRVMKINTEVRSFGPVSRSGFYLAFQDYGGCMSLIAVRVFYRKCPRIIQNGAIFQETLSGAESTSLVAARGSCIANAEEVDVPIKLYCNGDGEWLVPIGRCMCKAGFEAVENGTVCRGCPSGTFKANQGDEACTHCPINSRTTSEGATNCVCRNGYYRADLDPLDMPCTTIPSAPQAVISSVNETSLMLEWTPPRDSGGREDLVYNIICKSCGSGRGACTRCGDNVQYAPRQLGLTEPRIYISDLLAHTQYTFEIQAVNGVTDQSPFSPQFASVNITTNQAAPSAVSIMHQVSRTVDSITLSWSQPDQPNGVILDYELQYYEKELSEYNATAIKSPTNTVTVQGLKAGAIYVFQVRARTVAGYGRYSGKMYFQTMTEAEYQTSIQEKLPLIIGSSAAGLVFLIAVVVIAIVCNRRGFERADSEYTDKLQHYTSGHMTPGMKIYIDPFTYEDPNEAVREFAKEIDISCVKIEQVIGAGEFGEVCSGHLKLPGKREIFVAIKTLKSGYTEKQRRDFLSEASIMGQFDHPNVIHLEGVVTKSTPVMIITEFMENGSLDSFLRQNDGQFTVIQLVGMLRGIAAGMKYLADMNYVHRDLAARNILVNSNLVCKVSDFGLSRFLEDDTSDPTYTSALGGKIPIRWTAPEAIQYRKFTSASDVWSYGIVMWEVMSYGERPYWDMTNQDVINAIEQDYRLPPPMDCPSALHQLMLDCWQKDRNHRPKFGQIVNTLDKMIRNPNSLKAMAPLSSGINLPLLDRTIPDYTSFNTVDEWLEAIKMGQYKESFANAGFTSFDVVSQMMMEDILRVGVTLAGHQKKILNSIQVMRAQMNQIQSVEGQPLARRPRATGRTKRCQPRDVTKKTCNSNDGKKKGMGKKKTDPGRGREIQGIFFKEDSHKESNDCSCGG
Chain of FGFR1 (P11362 whole entry, looked up): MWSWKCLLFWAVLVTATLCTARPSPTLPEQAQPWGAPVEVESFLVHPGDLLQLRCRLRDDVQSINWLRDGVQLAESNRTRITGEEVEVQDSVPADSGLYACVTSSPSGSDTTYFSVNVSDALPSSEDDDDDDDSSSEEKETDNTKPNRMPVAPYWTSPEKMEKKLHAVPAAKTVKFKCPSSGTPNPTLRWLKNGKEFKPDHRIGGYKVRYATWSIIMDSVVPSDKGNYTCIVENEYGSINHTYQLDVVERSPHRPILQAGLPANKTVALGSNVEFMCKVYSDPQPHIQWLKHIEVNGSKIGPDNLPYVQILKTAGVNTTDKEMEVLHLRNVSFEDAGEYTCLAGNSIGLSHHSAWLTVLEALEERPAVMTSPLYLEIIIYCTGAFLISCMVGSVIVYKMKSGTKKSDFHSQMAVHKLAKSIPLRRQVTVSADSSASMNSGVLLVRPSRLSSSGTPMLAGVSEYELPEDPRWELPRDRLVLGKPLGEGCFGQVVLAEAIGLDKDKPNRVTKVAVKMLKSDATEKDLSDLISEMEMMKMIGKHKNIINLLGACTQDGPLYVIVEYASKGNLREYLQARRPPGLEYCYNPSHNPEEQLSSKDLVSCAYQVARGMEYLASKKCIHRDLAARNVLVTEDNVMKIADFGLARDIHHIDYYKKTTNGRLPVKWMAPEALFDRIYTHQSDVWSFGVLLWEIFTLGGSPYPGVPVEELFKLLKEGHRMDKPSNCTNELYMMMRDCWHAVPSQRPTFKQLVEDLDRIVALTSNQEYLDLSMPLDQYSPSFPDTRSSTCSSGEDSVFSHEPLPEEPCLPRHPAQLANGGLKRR

| Sequence | SH2 binding enrichment (Grb2 SH2) | SH2 binding enrichment (SHP2-C SH2) | SH2 binding enrichment (c-Src SH2) | phosphorylation enrichment (AncSZ) | phosphorylation enrichment (EPHB1) | phosphorylation enrichment (EPHB2) | phosphorylation enrichment (FGFR1) | phosphorylation enrichment (FGFR3) | phosphorylation enrichment (Fer (mouse)) | phosphorylation enrichment (Fes) | phosphorylation enrichment (Fyn) | phosphorylation enrichment (Hck) | phosphorylation enrichment (Jak2) | phosphorylation enrichment (MERTK) | phosphorylation enrichment (c-Abl (mouse)) | phosphorylation enrichment (c-Src) |
| --- | --- | --- | --- | --- | --- | --- | --- | --- | --- | --- | --- | --- | --- | --- | --- | --- |
| DEYLEYRRIVG [FAM221A_Y20] | 1.03 | 0.762 | 0.547 | 1.14 | 1.12 | 0.615 | 1.07 | 0.968 | 0.51 | 0.881 | 1.03 | 1.06 | 0.91 | 0.38 | 0.859 | 1.07 |
| TLLSAYQIPRT [GAB2_Y324_P320L] | 0.91 | 0.73 | 0.786 | 0.729 | 0.55 | 0.42 | 0.418 | 0.531 | 0.545 | 0.74 | 0.387 | 0.533 | 0.68 | 1.18 | 9.51 | 0.435 |
| RKLVDYDSARH [BIN1_Y150] | 1.03 | 0.42 | 0.387 | 0.491 | 0.498 | 0.481 | 0.571 | 0.668 | 0.565 | 0.968 | 0.449 | 0.418 | 0.792 | 0.57 | 0.916 | 0.649 |
| QFPDVYAREEV [CRX_Y67_YF] | 0.854 | 0.776 | 0.658 | 1.06 | 0.514 | 0.489 | 0.649 | 0.693 | 0.879 | 1.43 | 0.624 | 0.645 | 1.53 | 0.603 | 0.68 | 0.672 |
| NFADPYRQLPF [CTNND2_Y503_Q507P_YF] | 0.728 | 0.817 | 0.612 | 0.732 | 0.432 | 0.58 | 0.661 | 0.652 | 0.46 | 0.728 | 0.587 | 0.659 | 0.62 | 0.417 | 0.638 | 0.642 |
| SDYYAYSPVQE [H6PD_Y449_R453Q] | 1.01 | 0.971 | 1.3 | 6.17 | 16.4 | 21.6 | 15.8 | 14.9 | 10.7 | 0.952 | 8.25 | 6.3 | 9.08 | 9.08 | 8.16 | 5.44 |
| PIFEGYALPHA [ACTA1_Y171_YF] | 0.877 | 0.769 | 4.62 | 0.82 | 0.546 | 0.574 | 0.536 | 0.665 | 0.49 | 0.778 | 0.536 | 0.541 | 0.717 | 0.807 | 2.44 | 0.562 |

Second part, led by results:

| SH2 binding enrichment (Grb2 SH2) | SH2 binding enrichment (SHP2-C SH2) | SH2 binding enrichment (c-Src SH2) | Sequence | phosphorylation enrichment (AncSZ) | phosphorylation enrichment (EPHB1) | phosphorylation enrichment (EPHB2) | phosphorylation enrichment (FGFR1) | phosphorylation enrichment (FGFR3) | phosphorylation enrichment (Fer (mouse)) | phosphorylation enrichment (Fes) | phosphorylation enrichment (Fyn) | phosphorylation enrichment (Hck) | phosphorylation enrichment (Jak2) | phosphorylation enrichment (MERTK) | phosphorylation enrichment (c-Abl (mouse)) | phosphorylation enrichment (c-Src) |
| --- | --- | --- | --- | --- | --- | --- | --- | --- | --- | --- | --- | --- | --- | --- | --- | --- |
| 1.63 | 0.952 | 1.93 | VQVAYYTVMMN [SPATA17_Y84_M86V] | 1.79 | 2.88 | 1.47 | 5.77 | 4.41 | 1.97 | 1.71 | 1.7 | 1.69 | 3.06 | 4.41 | 1.01 | 2.03 |
| 1.24 | 1.06 | 0.76 | GPSTPYTKSKC [SMARCC2_Y324_R329C] | 0.584 | 0.35 | 0.408 | 0.362 | 0.479 | 0.393 | 0.534 | 0.403 | 0.395 | 0.573 | 0.396 | 0.55 | 0.36 |
| 0.956 | 0.804 | 1.11 | RGKLFYQEVPA [METTL11B_Y76_A72G] | 0.844 | 1.48 | 0.777 | 1.37 | 1.29 | 0.719 | 1.05 | 0.544 | 0.853 | 0.649 | 3.21 | 0.503 | 0.564 |
| 0.804 | 0.693 | 0.581 | RDMNAYIRPSP [MMAA_Y207] | 1.03 | 0.444 | 1.02 | 0.804 | 1.02 | 1.19 | 1.24 | 1.01 | 0.8 | 1.57 | 1.02 | 1.32 | 0.971 |
| 0.761 | 0.656 | 0.571 | IVEYAYNDKAI [PUM3_Y259] | 1.28 | 0.705 | 0.69 | 0.501 | 0.702 | 0.631 | 1.27 | 0.505 | 0.539 | 1.15 | 0.397 | 0.859 | 0.474 |
| 1.57 | 1.02 | 0.755 | QFFQSYFNNNF [ZNF236_Y644] | 0.766 | 0.981 | 0.29 | 0.643 | 0.841 | 0.37 | 1.14 | 0.682 | 0.532 | 1.6 | 0.627 | 0.455 | 0.549 |
| 0.776 | 0.661 | 0.621 | GPRSLYNGLVA [UCP2_Y79] | 0.488 | 0.385 | 0.36 | 0.396 | 0.486 | 0.386 | 0.543 | 0.427 | 1.45 | 0.502 | 0.381 | 0.555 | 0.509 |
